# Assay results: patent publication US20140087995A1 (published 2014)
# Numbered stars: 1 amine (or outer) side, 2 acyl side, 3 side chain; on linkers, the order of the positions; unused ones are H or OH. Bridge positions count the residues as written; N and C are the ends. Side chains are listed from the residue outwards. Ends that are not written are not given here. * marks the point of attachment. C20 diacid = O=C(O)CCCCCCCCCCCCCCCCCCC(=O)*; γGlu = O=C(O)[C@H](CCC(=O)[*:2])N[*:1]; AEEA = NCCOCCOCC(=O)O
# T1: human calcitonin receptor (human, UniProt P30988 25-474)
# T1 construct: whole, on cells; also called hCTR; hCT
# T1 sequence (looked up): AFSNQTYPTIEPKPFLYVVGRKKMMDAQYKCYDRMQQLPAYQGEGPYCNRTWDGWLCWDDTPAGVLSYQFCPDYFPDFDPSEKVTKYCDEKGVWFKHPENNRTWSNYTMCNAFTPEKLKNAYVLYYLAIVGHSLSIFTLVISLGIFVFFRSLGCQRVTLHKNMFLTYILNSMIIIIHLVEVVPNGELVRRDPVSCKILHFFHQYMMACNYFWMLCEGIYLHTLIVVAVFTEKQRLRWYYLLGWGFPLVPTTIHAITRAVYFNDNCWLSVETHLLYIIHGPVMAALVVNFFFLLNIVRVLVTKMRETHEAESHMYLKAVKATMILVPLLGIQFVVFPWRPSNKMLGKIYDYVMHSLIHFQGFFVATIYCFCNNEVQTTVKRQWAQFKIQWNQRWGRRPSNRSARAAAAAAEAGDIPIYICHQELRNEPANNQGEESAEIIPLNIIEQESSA
# B1: N^ε1-[2-[2-[2-[[(4S)-4-carboxy-4-(19-carboxynonadecanoylamino)butanoyl]amino]ethoxy]ethoxy]acetyl]-[Arg17,Pro21,Pro27,Pro29,Pro34]-h-amylin (peptide)
# peptide: K([AEEA-γGlu-C20 diacid])CNTATCATQRLANFLRHSSPNFGAIPSPTNVGPNTY-NH2
# modifications: disulfide 2-7; N-terminus assumed
# SMILES: CC[C@H](C)[C@H](NC(=O)[C@H](C)NC(=O)CNC(=O)[C@H](Cc1ccccc1)NC(=O)[C@H](CC(N)=O)NC(=O)[C@@H]1CCCN1C(=O)[C@H](CO)NC(=O)[C@H](CO)NC(=O)[C@H](Cc1c[nH]cn1)NC(=O)[C@H](CCCNC(=N)N)NC(=O)[C@H](CC(C)C)NC(=O)[C@H](Cc1ccccc1)NC(=O)[C@H](CC(N)=O)NC(=O)[C@H](C)NC(=O)[C@H](CC(C)C)NC(=O)[C@H](CCCNC(=N)N)NC(=O)[C@H](CCC(N)=O)NC(=O)[C@@H](NC(=O)[C@H](C)NC(=O)[C@@H]1CSSC[C@H](NC(=O)[C@@H](N)CCCCNC(=O)COCCOCCNC(=O)CC[C@H](NC(=O)CCCCCCCCCCCCCCCCCCC(=O)O)C(=O)O)C(=O)N[C@@H](CC(N)=O)C(=O)N[C@@H]([C@@H](C)O)C(=O)N[C@@H](C)C(=O)N[C@@H]([C@@H](C)O)C(=O)N1)[C@@H](C)O)C(=O)N1CCC[C@H]1C(=O)N[C@@H](CO)C(=O)N1CCC[C@H]1C(=O)N[C@H](C(=O)N[C@@H](CC(N)=O)C(=O)N[C@H](C(=O)NCC(=O)N1CCC[C@H]1C(=O)N[C@@H](CC(N)=O)C(=O)N[C@H](C(=O)N[C@@H](Cc1ccc(O)cc1)C(N)=O)[C@@H](C)O)C(C)C)[C@@H](C)O
# notes: also called compound 56
# B2: N^ε1-[2-[2-[2-[[(4S)-4-carboxy-4-(19-carboxynonadecanoylamino)butanoyl]amino]ethoxy]ethoxy]acetyl]-[Arg17,Pro21,Pro27,Pro31,His35]-h-amylin (peptide)
# peptide: K([AEEA-γGlu-C20 diacid])CNTATCATQRLANFLRHSSPNFGAIPSSTPVGSHTY-NH2
# modifications: disulfide 2-7; N-terminus assumed
# SMILES: CC[C@H](C)[C@H](NC(=O)[C@H](C)NC(=O)CNC(=O)[C@H](Cc1ccccc1)NC(=O)[C@H](CC(N)=O)NC(=O)[C@@H]1CCCN1C(=O)[C@H](CO)NC(=O)[C@H](CO)NC(=O)[C@H](Cc1c[nH]cn1)NC(=O)[C@H](CCCNC(=N)N)NC(=O)[C@H](CC(C)C)NC(=O)[C@H](Cc1ccccc1)NC(=O)[C@H](CC(N)=O)NC(=O)[C@H](C)NC(=O)[C@H](CC(C)C)NC(=O)[C@H](CCCNC(=N)N)NC(=O)[C@H](CCC(N)=O)NC(=O)[C@@H](NC(=O)[C@H](C)NC(=O)[C@@H]1CSSC[C@H](NC(=O)[C@@H](N)CCCCNC(=O)COCCOCCNC(=O)CC[C@H](NC(=O)CCCCCCCCCCCCCCCCCCC(=O)O)C(=O)O)C(=O)N[C@@H](CC(N)=O)C(=O)N[C@@H]([C@@H](C)O)C(=O)N[C@@H](C)C(=O)N[C@@H]([C@@H](C)O)C(=O)N1)[C@@H](C)O)C(=O)N1CCC[C@H]1C(=O)N[C@@H](CO)C(=O)N[C@@H](CO)C(=O)N[C@H](C(=O)N1CCC[C@H]1C(=O)N[C@H](C(=O)NCC(=O)N[C@@H](CO)C(=O)N[C@@H](Cc1c[nH]cn1)C(=O)N[C@H](C(=O)N[C@@H](Cc1ccc(O)cc1)C(N)=O)[C@@H](C)O)C(C)C)[C@@H](C)O
# notes: also called compound 57
# B3: N^ε1-[2-[2-[2-[[(4S)-4-carboxy-4-(19-carboxynonadecanoylamino)butanoyl]amino]ethoxy]ethoxy]acetyl]-[Arg17,Pro21,Pro27,Pro34,His35]-h-amylin (peptide)
# peptide: K([AEEA-γGlu-C20 diacid])CNTATCATQRLANFLRHSSPNFGAIPSSTNVGPHTY-NH2
# modifications: disulfide 2-7; N-terminus assumed
# SMILES: CC[C@H](C)[C@H](NC(=O)[C@H](C)NC(=O)CNC(=O)[C@H](Cc1ccccc1)NC(=O)[C@H](CC(N)=O)NC(=O)[C@@H]1CCCN1C(=O)[C@H](CO)NC(=O)[C@H](CO)NC(=O)[C@H](Cc1c[nH]cn1)NC(=O)[C@H](CCCNC(=N)N)NC(=O)[C@H](CC(C)C)NC(=O)[C@H](Cc1ccccc1)NC(=O)[C@H](CC(N)=O)NC(=O)[C@H](C)NC(=O)[C@H](CC(C)C)NC(=O)[C@H](CCCNC(=N)N)NC(=O)[C@H](CCC(N)=O)NC(=O)[C@@H](NC(=O)[C@H](C)NC(=O)[C@@H]1CSSC[C@H](NC(=O)[C@@H](N)CCCCNC(=O)COCCOCCNC(=O)CC[C@H](NC(=O)CCCCCCCCCCCCCCCCCCC(=O)O)C(=O)O)C(=O)N[C@@H](CC(N)=O)C(=O)N[C@@H]([C@@H](C)O)C(=O)N[C@@H](C)C(=O)N[C@@H]([C@@H](C)O)C(=O)N1)[C@@H](C)O)C(=O)N1CCC[C@H]1C(=O)N[C@@H](CO)C(=O)N[C@@H](CO)C(=O)N[C@H](C(=O)N[C@@H](CC(N)=O)C(=O)N[C@H](C(=O)NCC(=O)N1CCC[C@H]1C(=O)N[C@@H](Cc1c[nH]cn1)C(=O)N[C@H](C(=O)N[C@@H](Cc1ccc(O)cc1)C(N)=O)[C@@H](C)O)C(C)C)[C@@H](C)O
# notes: also called compound 58
# B4: N^ε1-[2-[2-[2-[[(4S)-4-carboxy-4-(19-carboxynonadecanoylamino)butanoyl]amino]ethoxy]ethoxy]acetyl]-[Arg17,Pro21,Pro27,Pro34]-h-amylin (peptide)
# peptide: K([AEEA-γGlu-C20 diacid])CNTATCATQRLANFLRHSSPNFGAIPSSTNVGPNTY-NH2
# modifications: disulfide 2-7; N-terminus assumed
# SMILES: CC[C@H](C)[C@H](NC(=O)[C@H](C)NC(=O)CNC(=O)[C@H](Cc1ccccc1)NC(=O)[C@H](CC(N)=O)NC(=O)[C@@H]1CCCN1C(=O)[C@H](CO)NC(=O)[C@H](CO)NC(=O)[C@H](Cc1c[nH]cn1)NC(=O)[C@H](CCCNC(=N)N)NC(=O)[C@H](CC(C)C)NC(=O)[C@H](Cc1ccccc1)NC(=O)[C@H](CC(N)=O)NC(=O)[C@H](C)NC(=O)[C@H](CC(C)C)NC(=O)[C@H](CCCNC(=N)N)NC(=O)[C@H](CCC(N)=O)NC(=O)[C@@H](NC(=O)[C@H](C)NC(=O)[C@@H]1CSSC[C@H](NC(=O)[C@@H](N)CCCCNC(=O)COCCOCCNC(=O)CC[C@H](NC(=O)CCCCCCCCCCCCCCCCCCC(=O)O)C(=O)O)C(=O)N[C@@H](CC(N)=O)C(=O)N[C@@H]([C@@H](C)O)C(=O)N[C@@H](C)C(=O)N[C@@H]([C@@H](C)O)C(=O)N1)[C@@H](C)O)C(=O)N1CCC[C@H]1C(=O)N[C@@H](CO)C(=O)N[C@@H](CO)C(=O)N[C@H](C(=O)N[C@@H](CC(N)=O)C(=O)N[C@H](C(=O)NCC(=O)N1CCC[C@H]1C(=O)N[C@@H](CC(N)=O)C(=O)N[C@H](C(=O)N[C@@H](Cc1ccc(O)cc1)C(N)=O)[C@@H](C)O)C(C)C)[C@@H](C)O
# notes: also called compound 50
# B5: N^ε1-[2-[2-[2-[[(4S)-4-carboxy-4-(19-carboxynonadecanoylamino)butanoyl]amino]ethoxy]ethoxy]acetyl]-[Gly14,Arg17,Pro21,Pro27,Pro31]-h-amylin (peptide)
# peptide: K([AEEA-γGlu-C20 diacid])CNTATCATQRLAGFLRHSSPNFGAIPSSTPVGSNTY-NH2
# modifications: disulfide 2-7; N-terminus assumed
# SMILES: CC[C@H](C)[C@H](NC(=O)[C@H](C)NC(=O)CNC(=O)[C@H](Cc1ccccc1)NC(=O)[C@H](CC(N)=O)NC(=O)[C@@H]1CCCN1C(=O)[C@H](CO)NC(=O)[C@H](CO)NC(=O)[C@H](Cc1c[nH]cn1)NC(=O)[C@H](CCCNC(=N)N)NC(=O)[C@H](CC(C)C)NC(=O)[C@H](Cc1ccccc1)NC(=O)CNC(=O)[C@H](C)NC(=O)[C@H](CC(C)C)NC(=O)[C@H](CCCNC(=N)N)NC(=O)[C@H](CCC(N)=O)NC(=O)[C@@H](NC(=O)[C@H](C)NC(=O)[C@@H]1CSSC[C@H](NC(=O)[C@@H](N)CCCCNC(=O)COCCOCCNC(=O)CC[C@H](NC(=O)CCCCCCCCCCCCCCCCCCC(=O)O)C(=O)O)C(=O)N[C@@H](CC(N)=O)C(=O)N[C@@H]([C@@H](C)O)C(=O)N[C@@H](C)C(=O)N[C@@H]([C@@H](C)O)C(=O)N1)[C@@H](C)O)C(=O)N1CCC[C@H]1C(=O)N[C@@H](CO)C(=O)N[C@@H](CO)C(=O)N[C@H](C(=O)N1CCC[C@H]1C(=O)N[C@H](C(=O)NCC(=O)N[C@@H](CO)C(=O)N[C@@H](CC(N)=O)C(=O)N[C@H](C(=O)N[C@@H](Cc1ccc(O)cc1)C(N)=O)[C@@H](C)O)C(C)C)[C@@H](C)O
# notes: also called compound 71
# B6: N^ε1-[2-[2-[2-[[(4S)-4-carboxy-4-(19-carboxynonadecanoylamino)butanoyl]amino]ethoxy]ethoxy]acetyl]-[His14,Arg17,Pro21,Pro27,Pro31]-h-amylin (peptide)
# peptide: K([AEEA-γGlu-C20 diacid])CNTATCATQRLAHFLRHSSPNFGAIPSSTPVGSNTY-NH2
# modifications: disulfide 2-7; N-terminus assumed
# SMILES: CC[C@H](C)[C@H](NC(=O)[C@H](C)NC(=O)CNC(=O)[C@H](Cc1ccccc1)NC(=O)[C@H](CC(N)=O)NC(=O)[C@@H]1CCCN1C(=O)[C@H](CO)NC(=O)[C@H](CO)NC(=O)[C@H](Cc1c[nH]cn1)NC(=O)[C@H](CCCNC(=N)N)NC(=O)[C@H](CC(C)C)NC(=O)[C@H](Cc1ccccc1)NC(=O)[C@H](Cc1c[nH]cn1)NC(=O)[C@H](C)NC(=O)[C@H](CC(C)C)NC(=O)[C@H](CCCNC(=N)N)NC(=O)[C@H](CCC(N)=O)NC(=O)[C@@H](NC(=O)[C@H](C)NC(=O)[C@@H]1CSSC[C@H](NC(=O)[C@@H](N)CCCCNC(=O)COCCOCCNC(=O)CC[C@H](NC(=O)CCCCCCCCCCCCCCCCCCC(=O)O)C(=O)O)C(=O)N[C@@H](CC(N)=O)C(=O)N[C@@H]([C@@H](C)O)C(=O)N[C@@H](C)C(=O)N[C@@H]([C@@H](C)O)C(=O)N1)[C@@H](C)O)C(=O)N1CCC[C@H]1C(=O)N[C@@H](CO)C(=O)N[C@@H](CO)C(=O)N[C@H](C(=O)N1CCC[C@H]1C(=O)N[C@H](C(=O)NCC(=O)N[C@@H](CO)C(=O)N[C@@H](CC(N)=O)C(=O)N[C@H](C(=O)N[C@@H](Cc1ccc(O)cc1)C(N)=O)[C@@H](C)O)C(C)C)[C@@H](C)O
# notes: also called compound 61
# Target: T1, human calcitonin receptor
# Experiment: SPA competition with 125I-calcitonin, membranes of BHK hCTR cells (Assay VII)
# Experimental: Membranes were prepared in the following way; the cells were rinsed with PBS and incubated with Versene for approximately 5 min before harvesting. The cells were flushed with PBS and the cell-suspension was centrifuged for 5 min at 1000 rpm. Cells were homogenized (Ultrathurrax) in a buffer containing 20 mM Na-HEPES and 10 mM EDTA (pH 7.4) and centrifuged at 20.000 rpm for 15 min. The resulting pellet was resuspended, homogenized and centrifuged (20.000 rpm, 15 min) in a buffer containing 20 mM Na-HEPES and 0.1 mM EDTA (pH 7.4, buffer 2). The resulting pellet was resuspended in buffer 2 and protein concentration was measured (BCA protein Assay, Pierce). The homogenate was kept cold during the whole procedure. The membranes were kept at −80° C. until use. Assay was performed in a 384 well Optiplate (PerkinElmer) in a total volume of 40 ul. Membranes were mixed with SPA beads. Final concentration of membranes 35 ng/μL final and Final concentration of SPA beads was 0.05 mg/well. Test-compounds were dissolved in DMSO and further diluted in assay buffer (50 mM Hepes, pH 7.4, 1 mM CaCl2, 5 mM MgCl₂, 0.1% OA and 0.02% Tween20). […] The final mixture was incubated for 120 min with shaking at 400 rpm at 25° C. prior to centrifugation (1500 rpm, 10 min). Samples were analyzed on TopCounter™ (Packard). The […] was calculated using (one site binding competition analysis) GraphPad Prism5 as a measure of receptor affinity.
row,Binder,IC50
1,B1,2.09 nM
2,B2,15.3 nM
3,B3,9.63 nM
4,B4,1.38 nM
5,B5,1.53 nM
6,B6,8.11 nM
